Like-named read-outs stand apart in the source and are kept apart here.

The record followed here is patent publication US20150218251A1 (NATIONAL CHENG KUNG UNIVERSITY, published 2015).

Assay [1] addresses T1, integrin α5β1 (UniProt P08648 42-1049; P05556 21-798). Put plainly: cell-based or functional assay.
Assay [2] has as its target T2, integrin αvβ3 (UniProt P06756 31-1048; P05106 27-788). The experiment in a line: cell-based or functional assay.
The target in assay [3] is T3, integrin αIIbβ3 (UniProt P08514 32-1039; P05106 27-788). Put plainly: cell-based or functional assay.
T3 sequence (P08514 32-1039, chain 1 of 2): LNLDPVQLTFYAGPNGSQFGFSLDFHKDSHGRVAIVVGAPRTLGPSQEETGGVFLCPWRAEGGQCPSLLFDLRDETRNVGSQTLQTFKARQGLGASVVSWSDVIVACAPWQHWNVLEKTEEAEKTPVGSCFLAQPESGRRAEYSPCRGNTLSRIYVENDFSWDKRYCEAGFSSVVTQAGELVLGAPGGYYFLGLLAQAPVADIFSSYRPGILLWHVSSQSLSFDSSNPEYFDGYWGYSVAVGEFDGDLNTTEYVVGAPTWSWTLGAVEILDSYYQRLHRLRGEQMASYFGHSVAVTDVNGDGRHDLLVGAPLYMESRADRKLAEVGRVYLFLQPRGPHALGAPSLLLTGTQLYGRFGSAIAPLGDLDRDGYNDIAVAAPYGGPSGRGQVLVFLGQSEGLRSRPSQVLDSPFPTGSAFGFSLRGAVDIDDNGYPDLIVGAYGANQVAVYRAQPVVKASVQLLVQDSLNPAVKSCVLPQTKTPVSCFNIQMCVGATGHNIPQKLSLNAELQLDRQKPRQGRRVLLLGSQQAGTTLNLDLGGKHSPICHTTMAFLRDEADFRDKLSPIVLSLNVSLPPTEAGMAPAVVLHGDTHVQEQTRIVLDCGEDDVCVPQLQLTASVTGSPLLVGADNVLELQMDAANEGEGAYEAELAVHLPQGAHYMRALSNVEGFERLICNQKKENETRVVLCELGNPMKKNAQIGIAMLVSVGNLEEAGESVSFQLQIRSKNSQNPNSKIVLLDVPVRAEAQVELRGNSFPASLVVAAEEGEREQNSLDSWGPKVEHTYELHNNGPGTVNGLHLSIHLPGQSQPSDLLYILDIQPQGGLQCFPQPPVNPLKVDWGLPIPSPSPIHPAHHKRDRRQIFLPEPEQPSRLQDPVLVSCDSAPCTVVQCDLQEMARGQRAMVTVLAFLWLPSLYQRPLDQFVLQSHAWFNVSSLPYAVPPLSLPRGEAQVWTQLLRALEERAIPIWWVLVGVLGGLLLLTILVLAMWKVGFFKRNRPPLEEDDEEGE
T3 sequence (P05106 27-788, chain 2 of 2): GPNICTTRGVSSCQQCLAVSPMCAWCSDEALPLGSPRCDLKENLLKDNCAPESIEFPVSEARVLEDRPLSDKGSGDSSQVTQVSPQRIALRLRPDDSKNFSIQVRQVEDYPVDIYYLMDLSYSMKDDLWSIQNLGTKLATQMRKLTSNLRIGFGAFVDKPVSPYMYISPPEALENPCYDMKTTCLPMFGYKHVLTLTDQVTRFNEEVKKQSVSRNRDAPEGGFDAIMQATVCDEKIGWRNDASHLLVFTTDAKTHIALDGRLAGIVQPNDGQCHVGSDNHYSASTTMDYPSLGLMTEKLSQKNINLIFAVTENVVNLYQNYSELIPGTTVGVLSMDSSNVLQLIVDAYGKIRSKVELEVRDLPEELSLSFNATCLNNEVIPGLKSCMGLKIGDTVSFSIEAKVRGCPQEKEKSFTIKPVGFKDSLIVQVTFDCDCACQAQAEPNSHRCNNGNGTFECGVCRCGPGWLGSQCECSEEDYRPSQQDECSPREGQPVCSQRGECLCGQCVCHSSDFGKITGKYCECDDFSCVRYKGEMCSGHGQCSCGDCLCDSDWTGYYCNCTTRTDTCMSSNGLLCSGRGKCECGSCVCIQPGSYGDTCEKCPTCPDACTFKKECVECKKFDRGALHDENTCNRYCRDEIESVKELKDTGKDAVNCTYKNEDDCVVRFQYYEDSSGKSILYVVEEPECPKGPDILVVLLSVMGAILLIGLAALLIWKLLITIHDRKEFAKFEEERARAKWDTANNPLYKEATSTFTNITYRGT
Assay [4] addresses T3, integrin αIIbβ3. The experiment in a line: cell adhesion inhibition assay (Table 4).
Procedure: (§1) Briefly, 96-well Immulon-2 microtiter plates (Costar, Corning, N.Y.) were coated with 100 μl of phosphate-buffered saline (PBS: 10 mM phosphate buffer, 0.15M NaCl, pH 7.4) containing substrates at a concentration of 50-500 nM, and incubated overnight at 4° C. […] Non-specific protein binding sites were blocked by incubating each well with 200 μl of heat-denatured 1% bovine serum albumin (BSA, Calbiochem) at room temperature (25° C.) for 1.5 hr. Afterwards, the blocking heat-denatured BSA was discarded and each well was washed twice with 200 μl of PBS.
(§2) Chinese hamster ovary (CHO) cells expressing αvβ3 (CHO-αvβ3) and α5β1 (CHO-α5β1) integrins were maintained in 100 μl of Dulbecco's Modified Eagle's Medium (DMEM) medium. Both CHO-αvβ3 and CHO-α5β1 were kind gifts of Dr. Y. Takada (Scripps Research Institute) established by stable transfection with a neomycin-resistant gene. CHO cells growing in log phase were detached by trypsinization and used in the assay at 3×10⁵ cells/ml. FNIII 9-10, FNIII 10 and variants thereof were added to the cultured cells at the concentrations of 0.001-500 μM and incubated at 37° C. in 5% CO₂ for 15 minutes. The treated cells were then added into the coated plate and incubated at 37° C. in 5% CO₂ for 1 hour. The incubation solution was then discarded and non-adhered cells were removed by washing twice with 200 μl PBS.
(§3) Bound cells were quantified by crystal violet staining. Briefly, the well was fixed with 100 μl of 10% formalin for 10 minutes and dried. Fifty microliters of 0.05% crystal violet were then added into the well at room temperature for 20 minutes. Each well was washed with 200 μl of distilled water four times and dried. Colorization was carried out by adding 150 μl of colorizing solution (50% alcohol and 0.1% acetic acid). The resulting absorbance was read at 600 nm and the readings were correlated with the number of adhering cells.
Assay [5] deals with T2, integrin αvβ3. The experiment in a line: cell adhesion inhibition assay (Table 4).
Procedure: as §1, §2, §3
The target of assay [6] is T1, integrin α5β1. The experiment in a line: cell-based or functional assay. This is another data set of the same source.
Assay [7] deals with T2, integrin αvβ3. The experiment in a line: cell-based or functional assay. The source holds these as a separate data set.
The target in assay [8] is T3, integrin αIIbβ3. The experiment in a line: cell-based or functional assay. The source holds these as a separate data set.
Assay [9] deals with T2, integrin αvβ3. Put plainly: cell adhesion inhibition assay (Table 5).
Procedure: as §1
(§4) Chinese hamster ovary (CHO) cells expressing αvβ3 (CHO-αvβ3) and α5β1 (CHO-α5β1) integrins were maintained in 100 μl of Dulbecco's Modified Eagle's Medium (DMEM) medium. Both CHO-αvβ3 and CHO-α5β1 were kind gifts of Dr. Y. Takada (Scripps Research Institute) established by stable transfection with a neomycin-resistant gene. CHO cells growing in log phase were detached by trypsinization and used in the assay at 3×10⁵ cells/ml. FNIII 9-10, FNIII 10 and variants thereof were added to the cultured cells at the concentrations of 0.001-500 μM and incubated at 37° C. in 5% CO₂ for 15 minutes. […]
(§5) Bound cells were quantified by crystal violet staining. […] The resulting absorbance was read at 600 nm and the readings were correlated with the number of adhering cells.
Assay [10] concerns the target T3, integrin αIIbβ3. The experiment in a line: cell adhesion inhibition assay (Table 5).
Procedure: as §1, §4, §5

T2 sequence (P06756 31-1048, chain 1 of 2): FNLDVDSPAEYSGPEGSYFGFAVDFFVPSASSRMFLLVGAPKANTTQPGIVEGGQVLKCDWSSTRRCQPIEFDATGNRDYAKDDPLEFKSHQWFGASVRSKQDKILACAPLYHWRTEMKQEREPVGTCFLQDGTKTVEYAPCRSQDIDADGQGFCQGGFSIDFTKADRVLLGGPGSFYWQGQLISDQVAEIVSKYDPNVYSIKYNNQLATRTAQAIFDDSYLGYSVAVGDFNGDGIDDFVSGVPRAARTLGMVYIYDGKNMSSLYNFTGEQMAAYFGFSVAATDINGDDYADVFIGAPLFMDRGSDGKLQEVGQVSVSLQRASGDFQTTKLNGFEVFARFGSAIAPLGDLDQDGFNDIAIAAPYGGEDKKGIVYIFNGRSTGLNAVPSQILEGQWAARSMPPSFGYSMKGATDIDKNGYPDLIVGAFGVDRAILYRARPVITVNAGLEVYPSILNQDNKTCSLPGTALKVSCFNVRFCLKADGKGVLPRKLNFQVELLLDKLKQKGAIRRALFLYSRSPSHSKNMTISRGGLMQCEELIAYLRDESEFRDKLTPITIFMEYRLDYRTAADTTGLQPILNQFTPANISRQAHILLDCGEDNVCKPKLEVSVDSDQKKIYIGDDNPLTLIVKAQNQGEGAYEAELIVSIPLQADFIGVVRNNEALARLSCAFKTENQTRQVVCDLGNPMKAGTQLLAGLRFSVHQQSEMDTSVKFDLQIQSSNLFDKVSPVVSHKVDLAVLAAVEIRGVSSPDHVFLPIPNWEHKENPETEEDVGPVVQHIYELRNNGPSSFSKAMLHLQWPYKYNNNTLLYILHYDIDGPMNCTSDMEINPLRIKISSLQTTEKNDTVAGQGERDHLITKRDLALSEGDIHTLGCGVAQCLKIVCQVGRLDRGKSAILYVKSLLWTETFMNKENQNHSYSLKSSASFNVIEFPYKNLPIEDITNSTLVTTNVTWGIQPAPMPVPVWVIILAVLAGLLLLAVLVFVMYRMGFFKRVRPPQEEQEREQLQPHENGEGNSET
T2 sequence (P05106 27-788, chain 2 of 2): as the sequence (P05106 27-788, chain 2 of 2) above
T1 sequence (P08648 42-1049, chain 1 of 2): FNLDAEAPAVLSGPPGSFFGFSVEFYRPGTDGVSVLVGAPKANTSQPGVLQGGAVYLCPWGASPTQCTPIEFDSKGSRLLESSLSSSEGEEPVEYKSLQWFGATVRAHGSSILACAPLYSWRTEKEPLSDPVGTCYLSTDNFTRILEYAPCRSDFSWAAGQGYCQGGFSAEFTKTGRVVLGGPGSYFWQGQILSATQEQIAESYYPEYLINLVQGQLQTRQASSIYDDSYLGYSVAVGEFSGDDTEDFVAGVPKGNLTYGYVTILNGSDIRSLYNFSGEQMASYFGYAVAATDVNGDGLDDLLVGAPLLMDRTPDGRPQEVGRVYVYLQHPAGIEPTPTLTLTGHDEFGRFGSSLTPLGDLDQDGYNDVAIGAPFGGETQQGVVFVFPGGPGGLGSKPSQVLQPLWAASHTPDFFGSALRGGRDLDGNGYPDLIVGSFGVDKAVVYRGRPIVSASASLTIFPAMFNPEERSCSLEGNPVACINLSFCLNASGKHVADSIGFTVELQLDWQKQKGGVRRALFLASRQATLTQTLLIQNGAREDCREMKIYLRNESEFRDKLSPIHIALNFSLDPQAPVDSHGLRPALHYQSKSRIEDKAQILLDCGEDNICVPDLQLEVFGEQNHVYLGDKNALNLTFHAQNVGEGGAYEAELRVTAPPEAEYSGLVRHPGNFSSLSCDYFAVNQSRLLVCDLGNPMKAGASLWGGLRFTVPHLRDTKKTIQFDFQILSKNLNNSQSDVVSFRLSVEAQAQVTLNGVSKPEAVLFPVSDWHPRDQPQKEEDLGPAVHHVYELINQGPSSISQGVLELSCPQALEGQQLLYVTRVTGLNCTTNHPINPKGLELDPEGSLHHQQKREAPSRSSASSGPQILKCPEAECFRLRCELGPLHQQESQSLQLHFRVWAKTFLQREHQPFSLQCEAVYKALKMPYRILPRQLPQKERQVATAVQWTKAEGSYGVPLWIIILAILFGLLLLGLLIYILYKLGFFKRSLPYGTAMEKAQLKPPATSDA
T1 sequence (P05556 21-798, chain 2 of 2): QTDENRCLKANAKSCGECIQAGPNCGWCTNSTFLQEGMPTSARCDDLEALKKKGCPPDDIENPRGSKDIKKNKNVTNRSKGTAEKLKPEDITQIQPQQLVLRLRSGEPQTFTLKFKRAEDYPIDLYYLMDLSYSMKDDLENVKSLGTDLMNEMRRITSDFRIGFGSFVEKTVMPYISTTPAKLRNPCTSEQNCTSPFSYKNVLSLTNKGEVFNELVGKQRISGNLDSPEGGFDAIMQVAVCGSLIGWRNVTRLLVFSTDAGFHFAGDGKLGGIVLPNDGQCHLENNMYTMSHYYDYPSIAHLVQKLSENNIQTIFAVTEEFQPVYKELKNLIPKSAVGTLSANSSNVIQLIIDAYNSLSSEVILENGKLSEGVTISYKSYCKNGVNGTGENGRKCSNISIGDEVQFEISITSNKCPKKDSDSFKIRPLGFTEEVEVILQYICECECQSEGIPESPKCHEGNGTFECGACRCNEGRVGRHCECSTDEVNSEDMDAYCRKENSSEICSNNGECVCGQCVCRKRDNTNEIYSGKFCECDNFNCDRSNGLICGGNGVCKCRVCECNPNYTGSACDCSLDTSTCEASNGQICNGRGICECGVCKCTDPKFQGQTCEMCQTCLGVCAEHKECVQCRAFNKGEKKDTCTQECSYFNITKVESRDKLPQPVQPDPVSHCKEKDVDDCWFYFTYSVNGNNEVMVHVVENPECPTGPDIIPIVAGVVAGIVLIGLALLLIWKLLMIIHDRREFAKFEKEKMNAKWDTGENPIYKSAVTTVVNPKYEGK

B1: Wild type FNIII 10 (SEQ ID NO: 2, …) (ligand)
chain: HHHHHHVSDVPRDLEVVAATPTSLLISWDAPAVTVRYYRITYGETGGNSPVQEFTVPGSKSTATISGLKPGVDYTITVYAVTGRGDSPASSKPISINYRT
notes: also called FNIII 10 wild type; human fibronectin type III domain module 10
As for B1, the “IC50, cell adhesion assay” value with integrin α5β1 [1] is > 4.59 µM; with integrin αvβ3 [2] it was 4.58 µM; with integrin αIIbβ3 [3] it was > 9.18 µM. Moreover, the “percentage of inhibition, cell adhesion assay” value with integrin α5β1 [1] was 39%; with integrin αIIbβ3 [3], 0%. Also, the “IC50, inhibition of ADP-induced platelet aggregation” value (“IC50, inhibition” below) in the assay with integrin αIIbβ3 [3] is ~45 µM. Moreover, the binding result with integrin αIIbβ3 [4] was “no binding (tested: >9180 nM)”.

B2: FNIII 10 C-X7-C (SEQ ID NO: 10, VCARGDNPDCSK) (designed binder)
chain: HHHHHHVSDVPRDLEVVAATPTSLLISWDAPAVTVRYYRITYGETGGNSPVQEFTVPGSKSTATISGLKPGVDYTITVYAVCARGDNPDCSKPISINYRT
On to B2, for which, in the assay with integrin α5β1 [1], the “IC50, cell adhesion assay” value is > 4.55 µM and the “percentage of inhibition, cell adhesion assay” value amounted to 0%. The “IC50, cell adhesion assay” value with integrin αvβ3 [2] came out at 0.432 µM. In the assay with integrin αIIbβ3 [3], the “IC50, cell adhesion assay” value is > 4.55 µM; the “IC50, inhibition” value is > 25.5 µM; the “percentage of inhibition, ADP-induced platelet aggregation” value is 2%; the “percentage of inhibition, cell adhesion assay” value worked out at 0%. Also, in the assay with integrin αIIbβ3 [4], the binding result is given as “no binding (tested: >4546 nM)”.

B3: FNIII 10 variant (SEQ ID NO: 48, VTPRGDMPDSSK) (designed binder)
chain: HHHHHHVSDVPRDLEVVAATPTSLLISWDAPAVTVRYYRITYGETGGNSPVQEFTVPGSKSTATISGLKPGVDYTITVYAVTPRGDMPDSSKPISINYRT
notes: also called FNIII 10 (PRGDMPD) protein; FNIII 10 PRGDMPD variant
Take B3: in the assay with integrin α5β1 [1], the “IC50, cell adhesion assay” value is > 6.8 µM and the “percentage of inhibition, cell adhesion assay” value stood at 31.7%. Besides, the “IC50, cell adhesion assay” value in the assay with integrin αvβ3 [2] was 0.645 µM. Moreover, in the assay with integrin αIIbβ3 [3], the “IC50, cell adhesion assay” value is > 9.07 µM; the “IC50, inhibition” value is > 22.2 µM; the “percentage of inhibition, ADP-induced platelet aggregation” value was 4%; the “percentage of inhibition, cell adhesion assay” value worked out at 0%. For the same molecule, the binding result with integrin αIIbβ3 [4] is given as “no binding (tested: >9073 nM)”.

B4: FNIII 10 C-X7-C (SEQ ID NO: 6, VCPRGDMPDCSK) (designed binder)
chain: HHHHHHVSDVPRDLEVVAATPTSLLISWDAPAVTVRYYRITYGETGGNSPVQEFTVPGSKSTATISGLKPGVDYTITVYAVCPRGDMPDCSKPISINYRT
On to B4, for which the “IC50, cell adhesion assay” value is > 73.2 µM in the assay with integrin α5β1 [1], 0.093 µM with integrin αvβ3 [2] and > 62.1 µM with integrin αIIbβ3 [3]. Also, the “percentage of inhibition, cell adhesion assay” value with integrin α5β1 [1] stood at 42%; in the assay with integrin αIIbβ3 [3] it was 19%. Moreover, the “IC50, inhibition” value with integrin αIIbβ3 [3] was ~62 µM. Besides, the “fold increase of binding affinity against SEQ ID NO:48” value with integrin αvβ3 [5] is 7 fold. The binding result with integrin αIIbβ3 [4] is “no binding (tested: >62124 nM)”.

B5: FNIII 10 C-X7-C (SEQ ID NO: 8, VCPRGDWNECSK) (designed binder)
chain: HHHHHHVSDVPRDLEVVAATPTSLLISWDAPAVTVRYYRITYGETGGNSPVQEFTVPGSKSTATISGLKPGVDYTITVYAVCPRGDWNECSKPISINYRT
notes: Engineered intradomain disulfide bond Cys1491-Cys1499; exact N-terminus uncertain
Turning to B5, in the assay with integrin α5β1 [1], the “IC50, cell adhesion assay” value is > 4.49 µM and the “percentage of inhibition, cell adhesion assay” value amounted to 48%. In the assay with integrin αvβ3 [2], the “IC50, cell adhesion assay” value was found to be 0.418 µM. Moreover, in the assay with integrin αIIbβ3 [3], the “IC50, cell adhesion assay” value was > 4.49 µM; the “IC50, inhibition” value was ~10 µM; the “percentage of inhibition, cell adhesion assay” value amounted to 0%. Moreover, the binding result with integrin αIIbβ3 [4] is “no binding (tested: >4494 nM)”.

B6: Wild type FNIII 9-10 (SEQ ID NO: 4) (ligand)
chain: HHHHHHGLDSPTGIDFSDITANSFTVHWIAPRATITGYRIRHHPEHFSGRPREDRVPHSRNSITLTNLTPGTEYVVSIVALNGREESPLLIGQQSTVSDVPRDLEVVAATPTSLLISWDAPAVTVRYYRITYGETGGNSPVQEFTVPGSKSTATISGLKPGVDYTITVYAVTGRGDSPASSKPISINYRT
notes: exact N-terminus uncertain; also called Wild-type human FN III 9-10; Control
Take B6: the “IC50, cell adhesion assay” value with integrin α5β1 [6] is 0.245 µM; with integrin αvβ3 [7], > 3.12 µM; with integrin αIIbβ3 [8], > 4.8 µM. The “percentage of inhibition, cell adhesion assay” value came to 33.2% in the assay with integrin αvβ3 [7] and 0% with integrin αIIbβ3 [8]. In the assay with integrin αIIbβ3 [8], the “IC50, inhibition” value is ~20 µM. Further, the binding result was “no binding (tested: >3119 nM)” with integrin αvβ3 [9] and “no binding (tested: >4798 nM)” with integrin αIIbβ3 [10].

B7: Control FNIII 10 mutant (SEQ ID NO: 50, VTPRGDWNEGSK) (designed binder)
chain: HHHHHHVSDVPRDLEVVAATPTSLLISWDAPAVTVRYYRITYGETGGNSPVQEFTVPGSKSTATISGLKPGVDYTITVYAVTPRGDWNEGSKPISINYRT
notes: exact N-terminus uncertain; also called FNIII 10 variant
Consider B7, for which, in the assay with integrin α5β1 [1], the “IC50, cell adhesion assay” value was > 4.51 µM and the “percentage of inhibition, cell adhesion assay” value came out at 32.5%. Also, in the assay with integrin αvβ3 [2], the “IC50, cell adhesion assay” value is 0.908 µM. For the same molecule, in the assay with integrin αIIbβ3 [3], the “IC50, cell adhesion assay” value is > 9.03 µM; the “IC50, inhibition” value is > 6.45 µM; the “percentage of inhibition, ADP-induced platelet aggregation” value is 14%; the “percentage of inhibition, cell adhesion assay” value was 0%. For the same molecule, the binding result with integrin αIIbβ3 [4] is reported as “no binding (tested: >9027 nM)”.
